B1: Zinc finger MYM-type protein 3, residues 589 to 668; numbered along this chain, Q14202 (parent)
chain: LSCHYCHSLFSGKPEVLDWQDQVFQFCCRDCCEDFKRLRGVVSQCEHCRQEKLLHEKLRFSGVEKSFCSEGCVLLYKQDF

± gives the uncertainty stated by the source.

Variants of B1 are the subject of this data set. The data set is described as follows: abundance fitness (aPCA) (normalised: wild type 0, dead -1); higher = more abundant; growth selection in yeast, the domain comes from the species named. Particulars: Homo sapiens.
Turning to LSCHYCHSLFSGKPEVLDWQDQVFQFCERDCCEDFKRLRGVVSQCEHCRQEKLLHEKLRFSGVEKSFCSEGCVLLYKQDF, the abundance fitness is -0.228 ± 0.063.
The figure for LSCHYCHSLFSGKPEVLDWQDQVFQFCYRDCCEDFKRLRGVVSQCEHCRQEKLLHEKLRFSGVEKSFCSEGCVLLYKQDF is -0.557 ± 0.15; for LSEHYCHSLFSGKPEVLDWQDQVFQFCCRDCCEDFKRLRGVVSQCEHCRQEKLLHEKLRFSGVEKSFCSEGCVLLYKQDF it is -0.823 ± 0.078.
In the case of LSCHYCHSLFSGKPEVLDWQDQVFQFCCYDCCEDFKRLRGVVSQCEHCRQEKLLHEKLRFSGVEKSFCSEGCVLLYKQDF, the abundance fitness was determined as 0.26 ± 0.069.
The result for LSCHYCHSLFSGKPEVLDWQDQVFQFCCCDCCEDFKRLRGVVSQCEHCRQEKLLHEKLRFSGVEKSFCSEGCVLLYKQDF reads 0.08 ± 0.05; that for LSCHYCHSLFSGKPEVLDWQDQVFQFCCEDCCEDFKRLRGVVSQCEHCRQEKLLHEKLRFSGVEKSFCSEGCVLLYKQDF, 0.013 ± 0.045.
Consider LSCHYCHSLFSGKPEVLDWQDQVFQFCCRDCCEDFKRLRGVVSQCEHCRQEKLLHEKLRFSGVEKSFCSELCVLLYKQDF, for which the abundance fitness was -0.105 ± 0.1.
The result for LSCHYCHSLFSGKPEVLDWQDQVFQFCCRDCCEDFKRLRGVVSQCEHCRQEKLLHEKLRFSGVEPSFCSEGCVLLYKQDF reads 0.325 ± 0.49; that for LSCHYCHSLFSIKPEVLDWQDQVFQFCCRDCCEDFKRLRGVVSQCEHCRQEKLLHEKLRFSGVEKSFCSEGCVLLYKQDF, -0.395 ± 0.075; that for LSCHYCHSLFSGKPEVLDWQDQVFQFCCRDCCEDFKRLRGVVSQCEHCRQEKLLHEKLRFSGVEKSFKSEGCVLLYKQDF, -0.525 ± 0.24.
The figure for LSCHYCHSLFSGKPEVLDWQDQVFQFCCRDCCEDFKRLRGVVSQCEHCRQEKLLHEKLRFSGVEKSFWSEGCVLLYKQDF is -1.18 ± 0.37; for LSCHYCHSLFSGKPEVLDWQDQVFQFCCRDCCEDFKRLRGVVSQCEHCRQEKLLHEKLRFSGLEKSFCSEGCVLLYKQDF it is -0.074 ± 0.18; for LSCHYCHSLFWGKPEVLDWQDQVFQFCCRDCCEDFKRLRGVVSQCEHCRQEKLLHEKLRFSGVEKSFCSEGCVLLYKQDF it is -0.565 ± 0.063.
The figure for LSCHYCHSLFFGKPEVLDWQDQVFQFCCRDCCEDFKRLRGVVSQCEHCRQEKLLHEKLRFSGVEKSFCSEGCVLLYKQDF is -0.397 ± 0.082.
LSCHYCHSLFSGKPEVLDWQDQVFQFCCRDCFEDFKRLRGVVSQCEHCRQEKLLHEKLRFSGVEKSFCSEGCVLLYKQDF: the abundance fitness was -0.237 ± 0.09.
The figure for LSCHYCHSLFSGKPEVLDWQDQVFQFCCRDCREDFKRLRGVVSQCEHCRQEKLLHEKLRFSGVEKSFCSEGCVLLYKQDF is -0.176 ± 0.04; for LSCHYCHSLFSGKPEVLDWQDQVFQFCCRDCCEDFKRLRGVVCQCEHCRQEKLLHEKLRFSGVEKSFCSEGCVLLYKQDF it is -0.062 ± 0.16.
The figure for LSCHYCHSLFSGKPEVLGWQDQVFQFCCRDCCEDFKRLRGVVSQCEHCRQEKLLHEKLRFSGVEKSFCSEGCVLLYKQDF is -0.083 ± 0.051.
The figure for LSCHYCHSLFSGKPEVLDWQDQVFQFCCRDCCEDFKRWRGVVSQCEHCRQEKLLHEKLRFSGVEKSFCSEGCVLLYKQDF is 0.243 ± 0.073; for LSCHYCHSLFSGKPEVLDWQDQVFQFCCRDCCEDFKRLRGVVSQWEHCRQEKLLHEKLRFSGVEKSFCSEGCVLLYKQDF it is -0.983 ± 0.3.
LSCHYCHSLFSGKPEVLDWQDQVFQFCCRDCCEDFKRLRGVVSQCEHCRQEKLTHEKLRFSGVEKSFCSEGCVLLYKQDF: the abundance fitness was -0.226 ± 0.45.
The figure for LSCHYCHSLFSGKPEVLDWQDQVFQFCCRDCCEDFKRLRGVVSQCEHCRQEKLAHEKLRFSGVEKSFCSEGCVLLYKQDF is -0.41 ± 0.16; for LSCHYCHSLFSGKPEVLDWQDQVFQFCCRDCCEDFKRLRGVVSQCEHCRQEKELHEKLRFSGVEKSFCSEGCVLLYKQDF it is 0.064 ± 0.14.
For the variant LSCHYCHSLFSGKPEVLDWQDQVFQFCCRDCCEDFKPLRGVVSQCEHCRQEKLLHEKLRFSGVEKSFCSEGCVLLYKQDF, the abundance fitness was -0.097 ± 0.13.
The figure for LSCHYCHSLFSGKPETLDWQDQVFQFCCRDCCEDFKRLRGVVSQCEHCRQEKLLHEKLRFSGVEKSFCSEGCVLLYKQDF is -0.03 ± 0.055; for LSCHYCHKLFSGKPEVLDWQDQVFQFCCRDCCEDFKRLRGVVSQCEHCRQEKLLHEKLRFSGVEKSFCSEGCVLLYKQDF it is 0.486 ± 0.044.
The figure for LSCHYCHSLFSGKPEVLDWQDQVFQFCCRDCCEDFKRLRGVVSQCEHCTQEKLLHEKLRFSGVEKSFCSEGCVLLYKQDF is -0.352 ± 0.14.
The result for LSCHGCHSLFSGKPEVLDWQDQVFQFCCRDCCEDFKRLRGVVSQCEHCRQEKLLHEKLRFSGVEKSFCSEGCVLLYKQDF reads 0.156 ± 0.037; that for LSCHLCHSLFSGKPEVLDWQDQVFQFCCRDCCEDFKRLRGVVSQCEHCRQEKLLHEKLRFSGVEKSFCSEGCVLLYKQDF, 0.082 ± 0.039.
For the variant LSCHYCHSLFSGKPEVLDWQDQHFQFCCRDCCEDFKRLRGVVSQCEHCRQEKLLHEKLRFSGVEKSFCSEGCVLLYKQDF, the abundance fitness came to 0.111 ± 0.051.
The figure for LSCHYCHSLFSGKPEVLDWQDQVFQFCCRDCCEDFKRLRGVVSQCEHCRQEKLLHEKLRFSGVEKSFCIEGCVLLYKQDF is -0.15 ± 0.36; for LSCHYCHSLFSGKPEVLDWQDQVFQFCCRDCCEDLKRLRGVVSQCEHCRQEKLLHEKLRFSGVEKSFCSEGCVLLYKQDF it is -0.641 ± 0.055.
The figure for LSCHYCHSLFSGKPEVLDWQDQVFQFCCRDCCEDFKRLRGVVSQCEHCRQEKLLHEKLAFSGVEKSFCSEGCVLLYKQDF is 0.22 ± 0.089.
Regarding LSCHYCHSLFSGKPEVYDWQDQVFQFCCRDCCEDFKRLRGVVSQCEHCRQEKLLHEKLRFSGVEKSFCSEGCVLLYKQDF, the abundance fitness was -0.202 ± 0.14.
The figure for LSCHYCHSLFSGKPEVHDWQDQVFQFCCRDCCEDFKRLRGVVSQCEHCRQEKLLHEKLRFSGVEKSFCSEGCVLLYKQDF is -0.017 ± 0.068.
Consider LSCHYCHSLFSGKPEVEDWQDQVFQFCCRDCCEDFKRLRGVVSQCEHCRQEKLLHEKLRFSGVEKSFCSEGCVLLYKQDF, for which the abundance fitness is -0.146 ± 0.05.
The figure for LSCHYCHSLFSGKPEVLDWQDQVFQFCCRDCCEDFKRLRGVGSQCEHCRQEKLLHEKLRFSGVEKSFCSEGCVLLYKQDF is -0.265 ± 0.095; for LSCHYCHSLFSGKPEVLDWQDQVFQFCCRDCCEDFKRLRGVWSQCEHCRQEKLLHEKLRFSGVEKSFCSEGCVLLYKQDF it is -0.01 ± 0.12; for LSCHYMHSLFSGKPEVLDWQDQVFQFCCRDCCEDFKRLRGVVSQCEHCRQEKLLHEKLRFSGVEKSFCSEGCVLLYKQDF it is -0.325 ± 0.19.
The figure for LSCHYDHSLFSGKPEVLDWQDQVFQFCCRDCCEDFKRLRGVVSQCEHCRQEKLLHEKLRFSGVEKSFCSEGCVLLYKQDF is -1.01 ± 0.27.
As for LSCHYCHSLFSGKPEVLDWQDQVFQFCCRDCCEDFKRLRGVVSQCEHCRQEKLLHEDLRFSGVEKSFCSEGCVLLYKQDF, the abundance fitness came out at 0.159 ± 0.37.
The result for LRCHYCHSLFSGKPEVLDWQDQVFQFCCRDCCEDFKRLRGVVSQCEHCRQEKLLHEKLRFSGVEKSFCSEGCVLLYKQDF reads 0.12 ± 0.042; that for LSCHYCHSLFSGKPEVLDWQDQVFQFCCRDCCEDFKRLRGVVSQCEHCRQEKLLHEKLRFSGVEKSFCSEGQVLLYKQDF, -0.317 ± 0.41; that for LSCHYCHSLFSGKPEVLDWQDQVFQFCCRDCCEDFKRLRGVVSQCEHCRQEKLLHEKLRFSGVEKSFCSEGAVLLYKQDF, -0.525 ± 0.2.
The figure for LSCHYCHSLFSGKPEVLDWQDQVFQFCCRDCCEDFKRLRGVVSQCEHCRQEKLLHEKVRFSGVEKSFCSEGCVLLYKQDF is 0.544 ± 0.089.
The result for LSCHYCHSLFSGKPEVLDWQHQVFQFCCRDCCEDFKRLRGVVSQCEHCRQEKLLHEKLRFSGVEKSFCSEGCVLLYKQDF reads -0.182 ± 0.1; that for LSCHYCHSLFSGKPEVLDWQDQVFQFCCRQCCEDFKRLRGVVSQCEHCRQEKLLHEKLRFSGVEKSFCSEGCVLLYKQDF, -0.036 ± 0.054.
As for LSCHYCHSLFSGKPEVLDWQDQVFQFCCRGCCEDFKRLRGVVSQCEHCRQEKLLHEKLRFSGVEKSFCSEGCVLLYKQDF, the abundance fitness was 0.057 ± 0.038.
The figure for MSCHYCHSLFSGKPEVLDWQDQVFQFCCRDCCEDFKRLRGVVSQCEHCRQEKLLHEKLRFSGVEKSFCSEGCVLLYKQDF is 0.442 ± 0.06.
Take LSCHYCHSLFSGKPEVLDWQDQVFQFCCRDCCEDFKRLRGVVSQCEHCRQEKLLHEKLRFSAVEKSFCSEGCVLLYKQDF: the abundance fitness is -0.722 ± 0.18.
Take LSCHYCHSLFSGKPEVLDWQDQVFQFCCRDCCEDFKRLRGVVSQCEHCRQEKLLHEKLRFSGVEKSACSEGCVLLYKQDF: the abundance fitness is -0.47 ± 0.18.
The result for LSCHYCHSLFSGKPEVLDWQDQVFQFCCRDCCEDFKRLRGVVSQCEHCRQEKLLHEKLRFSGVEKSHCSEGCVLLYKQDF reads 0.092 ± 0.13; that for LSCHYCHSLPSGKPEVLDWQDQVFQFCCRDCCEDFKRLRGVVSQCEHCRQEKLLHEKLRFSGVEKSFCSEGCVLLYKQDF, -0.052 ± 0.048.
The result for LSCHYCHSLFSGKPEVLDWQDQVFQFCCRDCCEDFKRLRGVVSQCEHCRQEKLLHEKLRFSGVEKHFCSEGCVLLYKQDF reads 0.295 ± 0.38.
The result for LSCHYCHSLFSGKPEVLDWQDQVFQFCCRDCCEAFKRLRGVVSQCEHCRQEKLLHEKLRFSGVEKSFCSEGCVLLYKQDF reads 0.064 ± 0.047; that for LSCHYCHSLFSGKPEVLDWQDQVFQFYCRDCCEDFKRLRGVVSQCEHCRQEKLLHEKLRFSGVEKSFCSEGCVLLYKQDF, -0.798 ± 0.32; that for LSCHYCHSLFSGKPEVLDWQDQVFQFFCRDCCEDFKRLRGVVSQCEHCRQEKLLHEKLRFSGVEKSFCSEGCVLLYKQDF, -0.607 ± 0.17.
Take LSCHYCHSLFSGKNEVLDWQDQVFQFCCRDCCEDFKRLRGVVSQCEHCRQEKLLHEKLRFSGVEKSFCSEGCVLLYKQDF: the abundance fitness was -0.153 ± 0.24.
The figure for LSCHYCHSLFSGKAEVLDWQDQVFQFCCRDCCEDFKRLRGVVSQCEHCRQEKLLHEKLRFSGVEKSFCSEGCVLLYKQDF is -0.223 ± 0.045.
With LSCEYCHSLFSGKPEVLDWQDQVFQFCCRDCCEDFKRLRGVVSQCEHCRQEKLLHEKLRFSGVEKSFCSEGCVLLYKQDF, the abundance fitness came to 0.174 ± 0.047.
Consider LSCHYCHSLFSGKPEVLDWQDHVFQFCCRDCCEDFKRLRGVVSQCEHCRQEKLLHEKLRFSGVEKSFCSEGCVLLYKQDF, for which the abundance fitness was found to be 0.269 ± 0.077.
With LSCHYCHSLFSGKPEVLDWQDQVFQFCCRDCCEDFKRLRGGVSQCEHCRQEKLLHEKLRFSGVEKSFCSEGCVLLYKQDF, the abundance fitness worked out at 0.056 ± 0.098.
The figure for LSCHYCHSLFSGKPEVLDWQDQVFQFCCRDCCEDFKRLRGVVSQCEHCRQEKLLHEKLRFSGVEKSFCSEGCVGLYKQDF is 0.183 ± 0.099; for LSCHYCHSLFSGKPEVLDWQDQVGQFCCRDCCEDFKRLRGVVSQCEHCRQEKLLHEKLRFSGVEKSFCSEGCVLLYKQDF it is -0.136 ± 0.042.
The figure for LSCHYCHSLFSGKPEVLDWQDQVFQFCCRDCCEDFIRLRGVVSQCEHCRQEKLLHEKLRFSGVEKSFCSEGCVLLYKQDF is -0.313 ± 0.1; for LSCHYCHSLFSGKPEVLDWQDQVFQFCCRDCCEDFMRLRGVVSQCEHCRQEKLLHEKLRFSGVEKSFCSEGCVLLYKQDF it is 0.229 ± 0.044.
LSCHYCHSLFSGKPEVLDWQDQVFQFCCRDCCEDFPRLRGVVSQCEHCRQEKLLHEKLRFSGVEKSFCSEGCVLLYKQDF: the abundance fitness is -0.615 ± 0.093.
For the variant LSCHYCMSLFSGKPEVLDWQDQVFQFCCRDCCEDFKRLRGVVSQCEHCRQEKLLHEKLRFSGVEKSFCSEGCVLLYKQDF, the abundance fitness was -0.133 ± 0.067.
The result for LSCHYCHSLFSGKPEVLDWQDQVFQFCCRDWCEDFKRLRGVVSQCEHCRQEKLLHEKLRFSGVEKSFCSEGCVLLYKQDF reads -1.26 ± 0.21.

For the origin of these results see the Human Domainome abundance scans (Beltran et al. 2025).
